The star is where a group is joined. Cbz = O=C(OCc1ccccc1)*
Tests used:
[1] = biological target: T1, C6 plasma membrane associated metalloendoprotease (rat C6 glioblastoma cells) (rat); assay: cell-based or functional assay
[2] = biological target: T1, C6 plasma membrane associated …; assay: cell-based or functional assay; remark: listed apart in the source

Row | IC50 on CNS myelin [µM], half maximal inhibition of C6 cell spreading [1] [µM] | IC50 of C6 cell spreading on CNS myelin [2] [µM] | Binder
1 | 3 |  | Cbz-FAFY-NH2 (SMILES C[C@H](NC(=O)[C@H](Cc1ccccc1)NC(=O)OCc1ccccc1)C(=O)N[C@@H](Cc1ccccc1)C(=O)N[C@@H](Cc1ccc(O)cc1)C(N)=O) [carbobenzoxy-Phe-Ala-Phe-Tyr-amide]
2 | 300 |  | Cbz-Tyr-Tyr-OH (SMILES O=C(N[C@@H](Cc1ccc(O)cc1)C(=O)N[C@@H](Cc1ccc(O)cc1)C(=O)O)OCc1ccccc1) [carbobenzoxy-tyrosine-tyrosine]
3 | 600 |  | Cbz-Phe-Ala-NH2 (SMILES C[C@H](NC(=O)[C@H](Cc1ccccc1)NC(=O)OCc1ccccc1)C(N)=O) [cbz-FA-NH2]
4 |  | 5 | Cbz-Gly-Phe-Phe-OMe (SMILES COC(=O)[C@H](Cc1ccccc1)NC(=O)[C@H](Cc1ccccc1)NC(=O)CNC(=O)OCc1ccccc1) [cbz-GFF-OCH3]
5 |  | 5 | Cbz-Gly-Leu-Phe-NH2 (SMILES CC(C)C[C@H](NC(=O)CNC(=O)OCc1ccccc1)C(=O)N[C@@H](Cc1ccccc1)C(N)=O) [cbz-GLF-NH2]
6 | 600 |  | Cbz-Gly-Phe-NH2 (SMILES NC(=O)[C@H](Cc1ccccc1)NC(=O)CNC(=O)OCc1ccccc1) [carbobenzoxy-Gly-Phe-amide]
7 | 300 |  | H-FAFY-NH2 [FAFY-NH2]
8 | 600 |  | Cbz-Ala-Phe-NH2 (SMILES C[C@H](NC(=O)OCc1ccccc1)C(=O)N[C@@H](Cc1ccccc1)C(N)=O) [cbz-AF-NH2]
9 | 20 |  | Cbz-Ala-Phe-Tyr-NH2 (SMILES C[C@H](NC(=O)OCc1ccccc1)C(=O)N[C@@H](Cc1ccccc1)C(=O)N[C@@H](Cc1ccc(O)cc1)C(N)=O) [cbz-AFY-NH2]
10 | 8 |  | Cbz-Gly-Phe-Phe-NH2 (SMILES NC(=O)[C@H](Cc1ccccc1)NC(=O)[C@H](Cc1ccccc1)NC(=O)CNC(=O)OCc1ccccc1) [Carbobenzoxy-Gly-Phe-Phe-amide]
11 | 1000 |  | H-Ala-Phe-Tyr-NH2 [AFY-NH2]
12 | 300 |  | Cbz-Gly-Phe-Phe-OH (SMILES O=C(CNC(=O)OCc1ccccc1)N[C@@H](Cc1ccccc1)C(=O)N[C@@H](Cc1ccccc1)C(=O)O) [cbz-GFF]

Source: patent US6960559 (UNIVERSITY OF ZURICH, dated 2005)
